For 1 sequence, PCR match/mismatch yield ratio (match/mismatch yield ratio) results are on record in patent US20040081963.

In the data set the target is Sso7d-ΔTaq (wild-type fusion) G24W (Sso7d numbering; reverts the mutant fusion to wild type) (Sulfolobus solfataricus? / Thermus aquaticus?) (UniProt P19821). Conditions: PCR yield ratio primer 57F over 57F5/6, reverse primer 732R, annealing 64 C.
Chain of UniProt P19821 (P19821 whole entry, stated change not applied, the tested form may be a part): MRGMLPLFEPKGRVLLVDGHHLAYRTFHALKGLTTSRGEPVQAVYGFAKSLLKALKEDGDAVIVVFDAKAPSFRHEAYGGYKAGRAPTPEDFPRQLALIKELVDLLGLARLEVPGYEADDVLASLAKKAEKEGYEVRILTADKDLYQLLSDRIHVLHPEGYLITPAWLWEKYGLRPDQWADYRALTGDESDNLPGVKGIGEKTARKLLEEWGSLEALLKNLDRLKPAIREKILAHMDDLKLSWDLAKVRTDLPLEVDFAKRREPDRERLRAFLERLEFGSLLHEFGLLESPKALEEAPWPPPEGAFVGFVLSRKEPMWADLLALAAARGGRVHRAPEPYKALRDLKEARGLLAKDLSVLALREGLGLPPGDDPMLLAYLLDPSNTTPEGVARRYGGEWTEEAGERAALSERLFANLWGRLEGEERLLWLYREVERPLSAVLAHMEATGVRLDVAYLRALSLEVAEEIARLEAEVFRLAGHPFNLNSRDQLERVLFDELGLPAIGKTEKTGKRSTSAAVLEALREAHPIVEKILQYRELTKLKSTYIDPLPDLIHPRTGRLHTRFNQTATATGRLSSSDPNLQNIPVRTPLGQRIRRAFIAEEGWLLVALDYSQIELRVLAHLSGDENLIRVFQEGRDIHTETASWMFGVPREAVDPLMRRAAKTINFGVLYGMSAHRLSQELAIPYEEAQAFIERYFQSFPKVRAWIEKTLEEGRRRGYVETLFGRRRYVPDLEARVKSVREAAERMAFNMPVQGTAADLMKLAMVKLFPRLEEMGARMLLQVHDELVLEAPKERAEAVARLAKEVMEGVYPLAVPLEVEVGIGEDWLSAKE

For the sequence “TCCGCCCTTCTTCGTCATAACT (double strand) [mismatched primer 57F5/6 on lambda DNA]”, the PCR match/mismatch yield ratio (match/mismatch yield ratio) was 0.92.
